Reference: US20110301335A1 (published 2011)
Positions count from the first letter of the chain named. Values belong to the molecule of their own block, whether it stands above or below them.

Experiments:
[1] = molecular target: human TNFR1 (R&D systems, cat no. 636-R1/CF) (human) (UniProt P19438); experiment: BIAcore sequential injection on biotinylated human TNFR1; competitor DOM1h-574-16
[2] = molecular target: T1, human TNFR1 (R&D systems, cat no. 636-R1/CF) (human, UniProt P19438 30-211, limits assumed, biotinylated with EZ-Link NHS-LC-LC-biotin where coated on streptavidin chips; amine-coupled in the Table 2 experiment); experiment: BIAcore screening of supernatants
T1 construct: bought soluble recombinant protein; also called hTNFR1; p55
T1 sequence (looked up): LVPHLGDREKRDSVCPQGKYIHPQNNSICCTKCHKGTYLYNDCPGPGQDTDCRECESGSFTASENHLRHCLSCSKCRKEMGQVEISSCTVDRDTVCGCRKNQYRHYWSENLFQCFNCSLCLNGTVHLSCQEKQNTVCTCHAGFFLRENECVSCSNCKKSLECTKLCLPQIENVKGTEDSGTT

percent less binding after DOM1h-574-16 [1]: 20%
Molecule: mAb Clone 4.12 (Invitrogen, cat. no. Zymed 33-0100) (antibody)

binding result [2]: binds
B1: DOM1h-574-7 (other)
VH: EVQLLESGGGLVQPGGSLRLSCAASGFTFVKYSMGWVRQAPGKGLEWVSQISNTGGHTYYADSVKGRFTISRDNSKNTLYLQMNSLRAEDTAVYYCAIYTGRWEPFDYWGQGTLVTVSS
notes: anti-TNFR1 dAb (VH) from error-prone test maturation; expressed from pDOM5 (myc tag not included here)

binding result [2]: binds
B2: DOM1h-574-10 (other)
VH: B1 VH with V30G, G44D
notes: as for B1
